{
  "source": "patent US12351834B2",
  "about": "“Compositions and methods for the treatment of ornithine transcarbamylase deficiency” (Arcturus Therapeutics, Inc., priority 2020, dated 2025)",
  "molecules": {"B1": {"name": "1799.7 (nucleic acid)", "chain": "ATGCTGTTCAACCTGCGCATCCTGCTGAACAACGCCGCCTTCCGCAACGGCCACAACTTCATGGTGCGCAACTTCCGCTGCGGCCAGCCCCTGCAGAACAAGGTGCAGCTGAAGGGCCGCGACCTGCTGACCCTGAAGAACTTCACCGGCGAGGAGATCAAGTACATGCTGTGGCTGAGCGCCGACCTGAAGTTCCGCATCAAGCAGAAGGGCGAGTACCTGCCCCTGCTGCAGGGCAAGAGCCTGGGCATGATCTTCGAGAAGCGCAGCACCCGCACCCGCCTGAGCACCGAGACAGGCTTCGCCCTGCTGGGCGGCCACCCCTGCTTCCTGACCACCCAGGACATCCACCTGGGCGTGAACGAGAGCCTGACCGACACCGCCCGCGTGCTGAGCAGCATGGCCGACGCCGTGCTGGCCCGCGTGTACAAGCAGAGCGACCTGGACACCCTGGCCAAGGAGGCCAGCATCCCCATCATCAACGGCCTGAGCGACCTGTACCACCCCATCCAGATCCTGGCCGACTACCTGACCCTGCAGGAGCACTACAGCAGCCTGAAGGGCCTGACCCTGAGCTGGATCGGCGACGGCAACAACATCCTGCACAGCATCATGATGAGCGCCGCCAAGTTCGGCATGCACCTGCAGGCCGCCACCCCCAAGGGCTACGAGCCCGACGCCAGCGTGACCAAGCTGGCCGAGCAGTACGCCAAGGAGAACGGCACCAAGCTGCTGCTGACCAACGACCCCCTGGAGGCCGCCCACGGCGGCAACGTGCTGATCACCGACACCTGGATCAGCATGGGCCAGGAGGAGGAGAAGAAGAAGCGCCTGCAGGCCTTCCAGGGCTACCAGGTGACCATGAAGACCGCCAAGGTGGCCGCCAGCGACTGGACCTTCCTGCACTGCCTGCCCCGCAAGCCCGAGGAGGTGGACGACGAGGTGTTCTACAGCCCCCGCAGCCTGGTGTTCCCCGAGGCCGAGAACCGCAAGTGGACCATCATGGCCGTGATGGTGAGCCTGCTGACCGACTACAGCCCCCAGCTGCAGAAGCCCAAGTTCTGA", "modifications": "100% 5-methoxyuridine; lipid formulation"}},
  "type_in_all_cases": "in vivo, mouse",
  "key": {"[1]": {"test_system": "Spf/ash mice", "test": "Urinary orotate levels in Spf/ash mice", "conditions": "3 mg/kg IV, lipid-formulated", "experimental": "Spf/ash mice received an IV injection with either PBS or lipid-formulated OTC-mRNA construct 1799.7 (5MeOU chemistry) at three different doses: 0.3 mg/kg, 1 mg/kg and 3 mg/kg. Urinary orotate levels were determined in untreated wild-type (WT) and both untreated and treated Spf/ash mice. A urinary orotate time course was performed in Spf/ash and WT mice, and urinary orotate levels were measured at each timepoint. The results can be seen in FIG. 12. Urinary orotate was normalized to creatinine, which is represented in the graph on the y-axis throughout the time course and served as a proof-of-concept of functional restoration of OTC activity post-injection.\nSpf/ash mice received an IV injection with either PBS or lipid-formulated (as described in Example 1) OTC-mRNA at 1 mg/kg and 3 mg/kg. WT mice were included as an internal control. Urinary orotate levels were measured at 0, 1, 3, 7 and 14 days, and levels were normalized to creatinine (FIG. 16)."}, "[2]": {"test_system": "Spf/ash mice", "test": "PK/PD analysis of human OTC expression and urinary orotate in Spf/ash mice", "conditions": "1 mg/kg and 3 mg/kg IV, 96 hours post dose", "experimental": "Spf/ash mice received an IV injection with either PBS or certain lipid-formulated OTC-mRNAs from Table 5 at 1 mg/kg and 3 mg/kg using two different uridine chemistries (N1MPU and 5MeOU). WT mice were used as internal controls. Human-specific OTC levels were measured by MRM, and urinary orotate was determined in each sample and normalized to creatinine."}, "[3]": {"test_system": "Spf/ash mice", "test": "Survival of Spf/ash mice on a high protein diet", "conditions": "0.3, 1 and 3 mg/kg IV on days 0, 7, 14, 21, 28", "experimental": "Spf/ash mice received an IV injection with either PBS or lipid-formulated OTC-mRNA (1799.7) at three doses: 0.3 mg/kg, 1 mg/kg and 3 mg/kg. Mice were fed a high protein diet from day 0 to the end of the study. Treated animals were injected intravenously on days 0, 7, 14, 21 and 28 (indicated by the arrows in the chart in FIG. 17). Survival rates were determined every week. The plot in FIG. 17 summarizes the entire study timeline and the survival rates observed for the different groups.\nThe pharmacology of the OTC mRNA lipid formulations was investigated in studies that elucidated their efficacy and potential mechanism of action in a series of studies in the hemizygous male Spf/ash mouse model. […] The hypomorphic Spf/ash mouse shares similar biochemical features with OTCD patients, including elevated concentrations of urinary orotic acid (orotate), blood glutamine, and decreased concentrations of blood citrulline and arginine. The hemizygous male Spf/ash mice used in the pharmacology studies were derived by crossing B6EiC3Sn a/A-Otcspfash/J Het mice x B6EiC3SnF1/J mice as homozygous mice are not viable. […]\nTo study the effect of different ionizable cationic lipids on survival rate, Spf/ash mice received an IV injection with either PBS or one of three different lipid-formulated OTC-mRNA (1799.7) compositions. […] Survival rates were determined daily. […]"}},
  "data": [
    {"molecule": "B1", "values": [
      {"measurement": "urinary orotate levels in treated Spf/ash mice vs WT mice", "setting": "[1]", "value": "comparable to urinary orotate levels in WT mice"},
      {"measurement": "duration of sustainable reduction of urinary orotate levels", "setting": "[1]; normalized to creatinine", "value": "up to 14 days"},
      {"measurement": "PK/PD correlation between hOTC protein expression and reduction of urinary orotate", "setting": "[2]", "value": "high PK/PD correlation"},
      {"measurement": "dose dependence of survival rate", "setting": "[3]", "value": "dose-dependent"},
      {"measurement": "survival during hyperammonemic crisis vs PBS", "setting": "[3]", "value": "greater survival"}
    ]}
  ]
}
